Reference: patent publication US11155602B2, “Polypeptides targeting HIV fusion” (priority 2015, dated 2021)
Residue numbers refer to the chain shown, from its start.

B1: 265 (protein)
chain: MGHHHHHHGGSVSDVPRDLEVVAATPTSLLISWEYKVHPYRYYRITYGETGGNSPVQEFTVPSVLSTATISGLKPGVDYTITVYAVTYGADSAPISINYRTEID
modifications: Adnectin
B2: 279 (protein)
chain: B1 chain with H38D, P39H, Y40Q, A90D
modifications: Adnectin
B3: 286 (protein)
chain: B1 chain with H38A, P39A, Y40W, A90D
modifications: Adnectin
B4: 282 (protein)
chain: B1 chain with K36S, A90D
modifications: Adnectin
B5: 131 (protein)
chain: B1 chain with A90D, D91L
modifications: Adnectin
B6: 299 (protein)
chain: B1 chain with E34K, A90D
modifications: Adnectin
B7: 130 (protein)
chain: B1 chain with K36N, P39Y, Y40D, Y88D, A90V, D91H, A93S
modifications: Adnectin
B8: 288 (protein)
chain: B1 chain with P26T, H38D, P39Y, Y40H, A90D
modifications: Adnectin
B9: 280 (protein)
chain: B1 chain with H38D, P39Y, Y40G, A90D
modifications: Adnectin
B10: 276 (protein)
chain: B1 chain with S71R, A90D
modifications: Adnectin
B11: 296 (protein)
chain: B1 chain with H38A, P39T, A90D
modifications: Adnectin
B12: 270 (protein)
chain: B1 chain with H38A, A90D
modifications: Adnectin
B13: 275 (protein)
chain: B1 chain with E58S
modifications: Adnectin
B14: 291 (protein)
chain: B1 chain with Y88G, A90D
modifications: Adnectin
B15: 295 (protein)
chain: B1 chain with H38A, P39A, A90D
modifications: Adnectin
B16: 272 (protein)
chain: B1 chain with H38D, P39T, A90D
modifications: Adnectin
B17: 289 (protein)
chain: B1 chain with K36G, A90D
modifications: Adnectin
B18: 278 (protein)
chain: B1 chain with H38A, P39R, Y40W, A90D
modifications: Adnectin
B19: 284 (protein)
chain: B1 chain with Y88S, A90D
modifications: Adnectin
B20: 287 (protein)
chain: B1 chain with H38A, P39T, Y40W, A90D
modifications: Adnectin
B21: 293 (protein)
chain: B1 chain with I70L, S71R, A90D
modifications: Adnectin
B22: 292 (protein)
chain: B1 chain with S71H, A90D
modifications: Adnectin
B23: 297 (protein)
chain: B1 chain with H38D, Y40W, A90D
modifications: Adnectin
B24: 269 (protein)
chain: B1 chain with E58A, A90D
modifications: Adnectin
B25: 273 (protein)
chain: B1 chain with K36E, A90D
modifications: Adnectin
B26: 267 (protein)
chain: B1 chain with E58D, S71R, A90D
modifications: Adnectin
B27: 283 (protein)
chain: B1 chain with Y88D, A90D
modifications: Adnectin
B28: 281 (protein)
chain: B1 chain with E34K, K36G, A90D
modifications: Adnectin
B29: 294 (protein)
chain: B1 chain with T67S, A90D
modifications: Adnectin
B30: 277 (protein)
chain: B1 chain with E58D, A90D
modifications: Adnectin
B31: 285 (protein)
chain: B1 chain with T67S, I70L, S71R, A90D
modifications: Adnectin
B32: 266 (protein)
chain: B1 chain with Y88R, A90D
modifications: Adnectin
B33: 274 (protein)
chain: B1 chain with K36R, A90D
modifications: Adnectin
B34: 298 (protein)
chain: B1 chain with H38D, P39Y, Y40Q, A90D
modifications: Adnectin
B35: 271 (protein)
chain: B1 chain with H38D, P39G, A90D
modifications: Adnectin
B36: 129 (protein)
chain: MGVSDVPRDLEVVAATPTSLLISWEYKVHPYRYYRITYGETGGNSPVQEFTVPSVLSSAEISGLKPGVDYTITVYAVTYGIDSPPISINYRTEIDKPSQHHHHHH
modifications: Adnectin
B37: 115 (protein)
chain: B36 chain with H29N, P30N, S58T, E60T, I81V, D82H, P84S
modifications: Adnectin
B38: 132 (protein)
chain: MGHHHHHHGGSVSDVPRDLEVVAATPTSLLISWDAPAVTVEEYYIGYYVEFEPSSYQWFTVPGSKSTATISGLKPGVEYSIYVNAVTGMGMQPEMSLPISINYRTEGS
modifications: Adnectin

These molecules were tested on NL-Rluc virus (assay: Combinectin potency assay: antiviral EC50, NL-Rluc virus in MT-2 cells, luciferase readout). Conditions: Anti-N17 Adnectin, Table 3.
Type: cell-based, HIV-1
Summary of the method: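 Peptides, serially diluted threefold over 11 points in triplicate, were exposed for 4–5 days to MT-2 cells preinfected 1 h with NL-Rluc virus (MOI 0.01). Replication read out as Renilla luciferase signal, with EC50 derived against untreated infected controls.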

Molecule	EC50 [nM]
B1	63
B2	> 1000
B3	> 1000
B4	56
B5	5
B6	> 1000
B7	42
B8	> 1000
B9	> 1000
B10	16
B11	> 1000
B12	> 1000
B13	180
B14	> 1000
B15	> 1000
B16	> 1000
B17	> 1000
B18	> 1000
B19	> 1000

Molecule	EC50 [nM]
B20	> 1000
B21	> 1000
B22	52
B23	30
B24	184
B25	> 1000
B26	> 1000
B27	> 1000
B28	> 1000
B29	101
B30	> 1000
B31	397
B32	> 1000
B33	115
B34	> 1000
B35	> 1000
B36	11
B37	130
B38	5
